According to patent publication US20250084167A1 (ZENAS BIOPHARMA, published 2025):

Target: T1, human CD19 (human, UniProt P15391 20-556)
T1 construct: CD19 on B cells of healthy subjects and patients (receptor occupancy in clinical studies); also called human B-cell restricted surface antigen CD19
T1 sequence: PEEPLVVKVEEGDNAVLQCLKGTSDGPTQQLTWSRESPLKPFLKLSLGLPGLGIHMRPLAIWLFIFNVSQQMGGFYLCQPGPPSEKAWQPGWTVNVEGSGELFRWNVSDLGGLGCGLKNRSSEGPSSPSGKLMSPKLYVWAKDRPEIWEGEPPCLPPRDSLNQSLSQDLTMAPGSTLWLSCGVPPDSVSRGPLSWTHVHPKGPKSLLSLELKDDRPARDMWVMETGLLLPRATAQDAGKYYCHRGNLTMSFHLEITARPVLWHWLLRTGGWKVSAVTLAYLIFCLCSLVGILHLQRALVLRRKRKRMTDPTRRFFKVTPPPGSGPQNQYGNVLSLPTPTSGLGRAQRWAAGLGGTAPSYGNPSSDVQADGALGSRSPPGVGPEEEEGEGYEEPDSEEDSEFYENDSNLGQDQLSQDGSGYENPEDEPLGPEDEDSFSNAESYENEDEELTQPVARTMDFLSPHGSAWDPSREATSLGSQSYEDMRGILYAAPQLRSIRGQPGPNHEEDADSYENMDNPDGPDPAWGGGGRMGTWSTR
Assay: population PK/PD model of CD19 receptor occupancy (direct response, sigmoidal Emax) against plasma obexelimab concentration, fitted to data of 4 clinical studies (healthy subjects, RA and IgG4-RD patients); in vivo plasma concentration for half-maximal CD19 receptor occupancy, population PK/PD model fit

EC50: 0.0745 µg/mL
B1: Obexelimab (antibody, human IgG1, kappa, V domains shown)
VH: EVQLVESGGGLVKPGGSLKLSCAASGYTFTSYVMHWVRQAPGKGLEWIGYINPYNDGTKYNEKFQGRVTISSDKSISTAYMELSSLRSEDTAMYYCARGTYYYGTRVFDYWGQGTLVTVSS
VL: DIVMTQSPATLSLSPGERATLSCRSSKSLQNVNGNTYLYWFQQKPGQSPQLLIYRMSNLNSGVPDRFSGSGSGTEFTLTISSLEPEDFAVYYCMQHLEYPITFGAGTKLEIKR
notes: Humanized IgG1 kappa; also called XmAb5871; anti-CD19 antibody
